Experimental data published in patent US12534533B2, “Anti-chemokine like receptor 1 humanized antibodies and their therapeutic applications” (OSE IMMUNOTHERAPEUTICS, priority 2019, dated 2026).
Entries after “also recorded” stand apart in the source; their conditions may differ.

What was measured:
[1] = test system: PMN from healthy volunteers; experiment: Percentage of dead PMN (mortality of neutrophils) on coated antibodies; assay type: cell-based, human; conditions: coated Ab at 10 μg/mL, 24 h; FIG. 26, FIG. 36
Method: […] Mortality of PMN was analyzed by incubating PMN with specific markers of the mortality and viability and then counted by picture analysis.
(§1) FIG. 36—Increase of dead PMN neutrophils in vitro with anti-ChemR23 antibodies coated. PMN from healthy volunteers were incubated in culture medium with coated HEF-LDT52S, HEF-LEF and HDLD antibody variants at 10 μg/mL for 24 h and stained either with a dead/viability kit (LIVE/DEAD (Invitrogen)). The percentages of positive cells were obtained by analyzing the pictures with Fiji software. Isotype control was added as control.
(§2) PMN from healthy volunteers were incubated in culture medium with coated Ab at 10 μg/mL for 24 h or 5 h and stained either with a dead/viability kit (LIVE/DEAD (Invitrogen)) or a specific marker of reactive oxygen species (ROS) respectively. The percentages of positive cells were obtained by analyzing the pictures with ImageJ software.
as §1, with “PMN” for “FIG. 36—Increase of dead PMN neutrophils in vitro with anti-ChemR23 antibodies coated. PMN”

[2] = test system: lesions in the central nervous system induced by MOG peptide; experiment: autoimmune encephalomyelitis experimental model (EAE); assay type: in vivo
Excerpt: Lesions in the central nervous system were induced by injection of the immunogenic MOG peptide combined with adjuvants.

[3] = test system: 4T1 cells; experiment: orthotopic mammary carcinoma model (4T1); assay type: in vivo, mice
Method: FIG. 8. Effect of an anti-CMKLR1 antibody on a 4T1 breast tumor model. Mice were inoculated with 4T1 cells (0.25 million) in the mammary gland. Then the anti-CMKLR1 antibody (2G1) (A. […]B. ●) or an anti-41BB antibody (3H3) (●) or both antibodies (▴) were injected twice at day 4 and day 7 (10 μg/injection) or a control antibody (IgG1 isotype antibody clone 3G8) (x A. and B.) was injected three time a week for three weeks. A. The tumor area was measured 8 days after tumor injection and then every 2 days. B. Tumor lung metastasis was measured by Bioluminescence imaging (BLI) in animals treated with isotype control and anti-CMKLR1 antibody (n=4).
Mice were anesthetized with 3% of isoflurane. Mice were shaved on the abdomen and 4T1 cells (0.25 millions) were injected in the mammary gland with an insulinic syringe (30 Gauges) in 50 μL of PBS. The anti-CMKLR1 antibody (2G1) or an anti-41BB antibody (3H3) or both antibodies were injected twice at day 4 and day 7 (10 μg/injection); a control antibody was injected three times a week for three weeks intraperitoneally in PBS (100 μg/injection). In a second study to measure the lung metastasis following mammary carcinoma development, animals were treated with anti-CMKLR1 antibody at 0.8 mg/kg or control antibody (100 μg/injection) three times a week for three weeks.

[4] = target: T1, CMKLR1 receptor (CHO-K1 CMKLR1 Gi cells) (Homo sapiens, UniProt Q99788); experiment: competition with Chemerin in the production of cAMP by CMKLR1 receptor; assay type: cell-based; conditions: antibody 1 μM to 1 nM, chemerin 2 nM; FIG. 18A
T1 construct: host or cells: CHO-K1
T1 sequence (Q99788 1-373): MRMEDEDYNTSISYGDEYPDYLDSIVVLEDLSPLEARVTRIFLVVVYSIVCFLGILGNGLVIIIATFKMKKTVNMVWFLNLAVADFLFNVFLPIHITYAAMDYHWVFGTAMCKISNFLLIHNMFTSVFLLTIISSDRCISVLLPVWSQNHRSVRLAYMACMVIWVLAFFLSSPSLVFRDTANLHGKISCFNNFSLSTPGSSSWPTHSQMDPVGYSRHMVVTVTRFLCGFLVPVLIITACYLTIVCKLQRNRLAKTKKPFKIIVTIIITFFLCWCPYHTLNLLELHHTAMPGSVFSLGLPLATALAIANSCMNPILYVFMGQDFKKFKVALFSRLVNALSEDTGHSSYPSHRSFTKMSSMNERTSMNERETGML
Method: The day before the experiment CHO-K1 CMKLR1 Gi cells (Discover'X ref 95-0080C2) were plated in pre-warmed cell reagent then plated in a 96-well plate at 100 μl/well of cells as (Discover'X ref 15-103) and incubated 24 hours at 37° C., in a 5% CO2 humidified incubator for 24 hours.
For the detection cAMP, antibody reagent and cAMP working detection solution was added to the plate for 1 hour at room temperature, then cAMP solution A was added, and cells incubated 3 hours at room temperature in the dark. Bioluminescence was read with a plate reader with 0.5s integration.

[5] = test system: CT26 cells; experiment: CT26 colon carcinoma model; assay type: in vivo, mice; conditions: 20 μg/injection i.p. for 3 weeks from d4; FIG. 9A-C
Method: FIG. 9. Effect of an anti-CMKLR1 antibody on 2 different colon carcinoma mice models. Two mice models were studied, and animals received isotype control antibody (3G8) (x) or anti-CMKLR1 (2G1) (□) at 20 μg/injection intraperitoneally for 3 weeks. A-C. Results in the CT26 colon carcinoma model comparing single treatment with p84 (A) and 2G1 (B) with combined therapy with both antibodies (C). D: Results in the MC38 colon carcinoma model.
8-week old C57bl/6J male mice were anesthetized with 3% of isoflurane. Mice were shaved on the flank and MC38 cells (0.5·10≢cells/mouse) cell lines were injected subcutaneously with an insulinic syringe (30 Gauges) in 50 μL of PBS. Another model was used, in which 8-week old Balb/c male mice were anesthetized with 3% of isoflurane. Mice were shaved on the flank and CT26 cells (1.10≢cells/mouse) were injected subcutaneously with an insulinic syringe (30 Gauges) in 50 μL of PBS.
The agonistic anti-CMKLR1 antibody (2G1) or an anti-SIRPa antibody (p84-anti-mouse SIRPa from Merck Millipore) (SIRPa is a new checkpoint inhibitor) were injected once a week (20 μg/injection) intraperitoneally for 3 weeks starting at d4 after tumor inoculation alone or combined.

[6] = test system: ROS production by PMN from healthy volunteers; experiment: ROS test in PMN; assay type: cell-based, human; conditions: coated Ab at 10 μg/mL, after 5 h; FIG. 26C
Method: Neutrophils were isolated from blood of healthy volunteers and cultured for 24 h (Mortality analysis), or 4 h, 6 h, 11 h (Caspase-3 assay), or 5 h (ROS assay) on coated Iso ctrl (cross), chimeric anti-ChemR23 2G1 (square) or different humanized versions of the 2G1 (diamonds). Mortality of PMN was analyzed by incubating PMN with specific markers of the mortality and viability and then counted by picture analysis.
as §2

B1: 2G1: parental chimeric anti-CMKLR1 antibody: heavy chain variable domain SEQ ID No. 37, light chain variable domain SEQ ID No. 49 (antibody, V domains shown)
VH: EVQLVASGGGLVQPGGSLKLSCAASGFTFSSYGMSWVRQTPDRRLELVATINRYGGSTYYPDSVKGRFTISRDNAKNTLYLQMSSLKSEDTAMYYCPRLIYYGNEGDSWGQGTTLTVSS
VL: QIVLTQSPAIMSASPGEKVTMTCSASSSVSFMHWYQQKSGTSPKRWIYDTTKLTSGVPARFSGSGSGTFYSLTISSMEAEDAATYYCQQWNSKPPLTFGPGTKLELKR
In the case of B1, the “mortality of PMN (percentage of dead PMN)” value [1] is reported as “increase the mortality of PMN; also recorded: accelerate the death of PMN”, the Weight variation overtime ([2]; curative administration, 1 mg/kg from clinical score 2, FIG. 32A) is reported as “does not lead to the reduction of the weight” and the “illness score lower than control” value ([2]; ten-day posttreatment) is reported as “approximately 30%”. The illness score ([2]; vs control antibody, FIG. 32B) was “significantly reduced”, the “tumor growth (tumor area)” value ([3]; 10 μg/injection at day 4 and day 7, vs isotype control, FIG. 8A) was “did not show any improvement” and the “lung metastasis by bioluminescence imaging” value ([3]; 0.8 mg/kg three times a week for three weeks, vs control antibody, FIG. 8B) was “reduces the lung metastasis”. For the same molecule, the lymph node metastasis ([3]; two animals in the control have metastasis, data not shown) was “no animals treated with the anti-CMKLR1 compound has metastasis”, the “Chemerin-induced inhibition of forskolin-dependent cAMP production” value [4] was “could not revert this inhibition of production” and the tumor development [5] was “did not demonstrate a clinical effect on the tumor development”. For the same molecule, the “ROS production by PMN” value [6] was “increase the ROS production”.
